Laboratory results as given in the nanobody polyreactivity screen of Harvey et al. (2022).

experiment: yeast display, Sf9 membrane polyspecificity reagent, FACS + sequencing; frameworks hold sequencing errors
Summary of the method: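 Polyreactivity labels are assigned by the sorting gate from which each nanobody was recovered. The gates were low and high (top ~1%), set on anti-HA fluorescence for expression and streptavidin fluorescence for reagent binding. Before sorting, galactose-induced (36–48 hours) yeast display cells were stained for 1 hour at 4 °C with 10% biotinylated, detergent-solubilized Sf9 membrane reagent.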

| Sequence | polyreactivity (PSR sort gate) |
| --- | --- |
| QVQLQDSGGGLVQAGGSLRLSCAASGYIFGSGSMGWFRQAPGKERELVATINNGSSTYYADSVKGRFTISRDNAINTVYLQMNSLKPEDTAVYYCAAVRIRPLRYYYWGQGTQVTVSS | high polyreactivity |
| QVQLVESGGGLVQAGGSLRLSCAASGFTFRKNAMGWYRQAPGKERELVAAISSGGGRTYYADSVKGRFTISRDNAKNTVYLQMNSLKPEDTAVYYCNAVRVVRLTFQDWISMDYWGQGTQVTVSS | high polyreactivity |
| QDQLVESVGGLDQAGGSLPLSCDASGSIFPDYAMGWYRPAPGKERELVAAITSSGSTNNADSVKGLFTISRDNAKNTVYLQMNSLNPEDTAVYYCNAVVVQEESGYTRYDYWGQGTQVTVSS | low polyreactivity |
| QVQLVESGGGLVQAGGSLRIICAASGRIFRENAMGWYRQAPGKAREWVAAISSGGSTYYADSVKGRFTISRDNAKNTDYLQMNSLKPEDPAVYYCAADLSWSRVVFGDYDYWGQGTHVTVSS | low polyreactivity |
| QVQLVESGGGLVQAGGSLRLSCAASGFTFSYNAMGWYRQAPGKERELVAAISSTGTSTYYADSVKGRFTISRDNAKNTVYLQMISLKPEDTAVYYCNAYGYDGYYAGRHGYWGQGTQVTVSS | low polyreactivity |
| QVQLVESGGGLVQAGCSLRLRSAASGSIFSGYAMGWYRQAPWKERELDAVISSTGDSTYYADSVKGRFTISRDYAKNTVYLQMNSLKPEDTAVYYCAAYHGPWKWTTRYGYWGQGTQVTVSS | low polyreactivity |
| QVQLVESGGRLVQAGGSLRLSSAASGRIFASNAMGWYRQAPGKERELVAAIDQGGGSTYYADSVKGRFTISRDNAKNTVYLQMNSLKPEDTAVYYCAADYITAYPRLYNYWGQGTQVTVSS | low polyreactivity |
| QVQLVESGGGLVQAGGSLRLSCAASGSTFAQNTMGWYRQAPGKERELVATISDGGGSTYYADSVKGRFTISRDIAKNTVYLQMNSLKPEDTAVYYCNTDRFWPSDYWGQGTQVTVSS | low polyreactivity |
| QVQLVESGGGLVQAGGSLRLSCAASGSIFVPNAMGWYRQAPGNERELVADLTRRGGSTYYADSVKGRFTISRDNAKNTVYLQMNSLKPEDTAVYYCNATYLTRSTRLSDFDYWGQGTQVTVSS | high polyreactivity |
| QVQLVESGGGLVQAGGSLRLSCAASGRIFVINTMGWYRQAPGKERELVAAISRGGSTNYADSVKGRFTISRDNAKNTVYLQMNSLKPEDTAVYYCAATGYILFAGGGYDYWGQGTQVTVSS | low polyreactivity |
| QVQLVESGGGLVQAGGSLRLSCAASGITFRYYAMGWYRPAPRKERELVAVISTSGGSTYYADSVKGRFTISRDNAKNTVYLQMNSLKPEDTAVYYCAARYSRSRRYRMDYWGQGTQVTVSS | high polyreactivity |
| QVQLVESGGGLVQAGGSLRLSCAASGSIFVGYAMGWYRQAPGKERELVAAISKSGGSTYYADSVKGRFTISRDNAKNTDYLQMNSLKPEDTAVYYCATRTHRRGNYLSITHEYWGQGTQVTVSS | high polyreactivity |
| QVHLVESGGGLDQAGGSLRLSSAASGTTYRYAMGCYRQAPGKAMELVATISSRGGTTSYADSVKGRFTISRDNAKNTVYLQMNSLKPEDTAVYSCAAGQFPKYFSDDADMDYWGQGPQVTVSS | low polyreactivity |
| QDQLVYSGGGLVQAGGSLSISCASSVSTFGGYAMGWYRQAPGKERELVSAITWSAGSTYADSVKGRFTISRDNAKNTVYLQMTSLKPEDTAVYYCAAYPYVGYVSLSAYDYWGQGTQVTVSS | low polyreactivity |
| QVQLVESGGGLVQAGGSLRLSCAASGFIFVYGNVMGWYRQAPGKERDLVASITSDGGSTNYADSVKGRFTISRDNAKNTVYLQMNSLKPEDTAVYYCNADVPRGFGGEYDYWGQGTQVTVSS | low polyreactivity |
| QVQLVESGGGLVQAGGSLRLSCAASGRTFAYNTMGWYRQAPGKEREFVAAIDSGDSTYYADSVKGRFTISRDNAKNTVYLQMNSLKPEDTAVYYCAARRYYGYDYWGQGTLVTVSS | high polyreactivity |
| QVQLVESGGGLVQAGGSLRLSCAASGSTYQNAMGWYRQAPGKEREFVAAISWSGGSTYYADSVKGRFTISRDNAKNTVYLQMNSLKPEDTAVYYCAAYSYFSPWYDYWGQGTQVTVSS | high polyreactivity |
| QVQLVDTGGGLVQAGGSLRLSCSASGSIFEGYAMGWYRKAPGKERELVARITSDDDSTYYADSVKGRFTISRDKEKNTVYLQMNSLKAEDTAVYYCNADYYWTSLAMDSWGQGTQVTVSS | low polyreactivity |
| QVQLVESGGGLVQAGGSLRLSCAASGLIFDDYAMGWYRQAPGKERELVAAISWSDGTTYYADSVKGRFTISRDNAKNTVYLQMNSLKPEDTAVYYCAAEEVSGWEYDYWGQGTQVTVSS | high polyreactivity |
| QVQLVESGGGLVQAGGSLRLSCAASGSTFPTYAMGWYRQAPGKERELVADITWSGGSTYYADSVKGRFTISRDNAKNTVYLQMNSLKPEDTAVYYCNAAHRKGMYYWGQGTQVTVSS | high polyreactivity |
| QVQLVESGGGLVQAGGSLRLSCAASGSTFAVNVMGWYRQAPGKERELVATITYRDGRTYYADSVKGRFTISRDNAKNTVYLQMNSLNPEDTAVYYCAADDEYKQEAEMDSWGQGTQVTVSS | low polyreactivity |
| QVHLVESGGGLVQAGGSLRLSCAASGITFYRFVLGGYRQAPGKEWELDAAISRTGGYTYYADSVKGRFTLSRDNAKNTVYLQMNSLKPVDTAVYYCAAATSTGIYDYWGQGTQVTGSS | high polyreactivity |

| Sequence | polyreactivity (PSR sort gate) |
| --- | --- |
| QVQLVESGGGLVQAGGSLRLSCAASGFIFGQYAMGWYRQAPGKERELVAAISWSGGRTNYADSVKGRYTISRDNAKNTVYLQMNSLKPEDTAVYYCAARKGKYPQYTYGYWGQGTQVTVSS | high polyreactivity |
| QVQIVESGGGVVQAGGSLRLICAASGSTFNPYAMGSYRQAPGKERELVAAIRGRSGRTYYADSVKGRFTISRDNAKNTVYLQMTSLIPEDTAVYYCAARFSEYRTHPSEVYYWGQGTQVTVSS | high polyreactivity |
| QVQLQESGGGLVQAGGILRLSCAASGPISRRSTMGWYRQAPGKERELVTAITRGTNTNYADSVKGRFTISRDNAKNTEYLQMNSLKPEDTAVYYCAAYGVLKPYRGDAVFHRYWGQGTQVTVSS | low polyreactivity |
| QVQLVESGGGLVQAGGSLRLSCAASGGIFERNDMGWYRQAPGKERELVAGISSVGSTNYADSVKGRFTISRDNAKNTVYLQMNSLKPEDTAVYYCAAGYSRAHDYWGQGTQVTVSS | low polyreactivity |
| QVQLVESGGGLVQAGGSLRLTCAPSGSTLLVYAMGWNRQAPGKERELVAAISGSGGRTSYADSVKGRFTISRDNAKNTVYLQMNSLKPEDTAVYYCAARRAGTYDYWGEGTQVTVSS | high polyreactivity |
| QVQLVESGGGLVQAGGSLRLSCAASGMIFGYYVMGWYRQAPGKERELVAAINSGGNTNYADSVKGRFTISRDNAKNTVYLQMNSLKPEDTAVYYCNRSYDSTDIREDYWGQGTQVTVSS | low polyreactivity |
| QVQLVESGGGLVHAGGSLRLSCAASGRIFHFNAMGWYRPAPGIERELVATITKRGGRTYYADSVKGRFTISRDNAKNTVYLQMNSLKPEDTAVYYCNADQSRYSAVSGYDYWGQGTQVTVSS | high polyreactivity |
| QVQLVESGGGLDQAGGSLRLSCAASGRIFSFNAMGWYRQAPGKERELVAAISWSTGSTFYADSVKGRFTISRDNAKNTVYLQMNSLKPEDTAVYYCAREYYYRRGFFLRGYWGQGTQVTVSS | high polyreactivity |
| QVQLVESGGGLVQAGGSLRLSCAAYGRIFRGYAMGRYRQAPGKEREFVAAITKNGGSTYYADSVKGRFTISRDNAKNTVYLQMNSLKPEDTAVYYCAVRALDPYTGKSDYWGQGTQVTVSS | low polyreactivity |
| QVQLVESGGGLVQAGGSLRLSCAASGGIFGLYTMGWYRQAPGKERELVAAISKTGGSTYYADSVKGRFTISRDNAKHTVYLQMNSLKPEDTAVYYCAADGPYDDYEYWGQGTQVTVSS | high polyreactivity |
| QVQLVESGGGLVQAGGSLRLSCAASGRTFVPYAMGWYRQAPGKEREFVAAISSRVGSTYYADSVKGRFTISRDNAKNTVYLQMNSLKPEDTAVYYCNAPFKPAGFYSAWKYDYWGQGTQVTVSS | low polyreactivity |
| QVQLVESGGGLVQSGGSLRLSCAASGFTLYYYAMGWYRQAPGKERELVARISGSSGRTYYADSVKGRFTISRDNAMNTFYLQMNSLKPEDTAVYFCAARYYTSATMDYWGQGTQVTVSS | high polyreactivity |
| QVQLVESGGGLVQAGGSLRLSCAASGSIFKWYTMGWYRQAPGKERELVAAITWGGGSTYYADSVKGRFTISRDNEKNTVYLQMNSLKPEDTAVYYCNREGWHYGPYGYWGQGTLVTVSS | low polyreactivity |
| QVQLVESGGGLVQAGGSLRLSCVASGRTFSRYAMGWYRQAPGKERELVAAISRRGGSTYYADSVKGRFTISRDNAKNTVYLQMNRLKPEDTAVNYCAAGYITCGSGNWVVTPYDYWGQGTQVTVSS | high polyreactivity |
| QVQLVESGGGLVQAGGSLRISCAASGSTFYHNVMGWYRPAPGKERELVASIDTGDSTNYADSVKGRFTISLDNAKNTVYLQMNSLKPEDTAVYYCNADSYPALNKRGYDYWGQGTQVTVSA | low polyreactivity |
| QVQLVESGGGLVQAGCSLRLSCAASGSTFGENAMGWYRQAPGKERELVAVITSDTSTYYADSVKGRFTISRDNAKNTVYLQMNSLKPEDTAVYYCAADWGGLWFWYEYWGQGTQVTVSS | low polyreactivity |
| QVQLVDSGGGLVQAGGSLRLRCAASGRTFTPYAMGWYRQAPGQERELVATISSGTSTNYADSVKGRFTISRDNAKNTVYLQMNSLKPEDTAVYDCAADGYTYKFDYWGQGTQVTVSS | low polyreactivity |
| QLQLVESGGGLVQAGGSLRLSCAASGRIFQDNPKGWYRPPPSKERELVAAISISGGITYYADSVKGRFTISRDNAKNTVYLQMNSLKPEDTAVYYCNKSISARLPGRYDYWGQGTQVTVSS | low polyreactivity |
| QVKLVESGGGLVQAGGSLRLSCAAYGLIMGRYAMGWYRQEPGKERELVAAISGSGGSTYYADSVKGRFTISRDNAKNTVYLQMNSLKPEDTAVYYCAADRLRYRDMYYWGQGTQVTVSS | low polyreactivity |
| QVQLVESGGGLVQAGGSLRLSCAASGSIFDTYAMGWYRQAPGQERELVAAITSGGSTNYADSVKGRFTISRDNAKNTVYLQMNSLKPEETAVYYCAADAEDRPSWPGNSEYEYWGQGTQVTVSS | low polyreactivity |
| QVQLVESGGGLVQAGGSLRLSCAASGRIFNHNTMGWYRQAPGKERELVAAISRSGASTYYADSVKGRFTISRDNAKNTVYLQMNSLKPEDTAVYYCNAATYADGITIYDYWGQGTQVTVSS | low polyreactivity |
